Data taken from US20260092124A1 (published 2026).

Molecular target: human CD40 (human, UniProt P25942 21-277)
Assay: cell binding (GpL luciferase, HT1080-CD40); single representative experiment

Chain of human CD40 (P25942 21-277): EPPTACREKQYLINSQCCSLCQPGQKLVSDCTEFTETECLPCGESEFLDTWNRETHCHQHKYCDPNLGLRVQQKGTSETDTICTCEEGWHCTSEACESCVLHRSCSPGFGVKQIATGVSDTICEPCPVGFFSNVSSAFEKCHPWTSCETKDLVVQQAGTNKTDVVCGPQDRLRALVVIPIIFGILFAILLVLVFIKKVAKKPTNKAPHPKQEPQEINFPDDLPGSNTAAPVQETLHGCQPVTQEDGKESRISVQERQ

Kd: 0.14 µg/mL
B1: GpL-CD40L, a fusion protein of soluble CD40L and Gaussia princeps luciferase (GpL) (ligand)
chain: GDQNPQIAAHVISEASSKTTSVLQWAEKGYYTMSNNLVTLENGKQLTVKRQGLYYIYAQVTFCSNREASSQAPFIASLCLKSPGRFERILLRAANTHSSAKPCGQQSIHLGGVFELQPGASVFVNVTDPSQVSHGTGFTSFGLLKL
